Results on three molecules are retold here after publication PMC11139879.

For series [1], the target named is T1, pP1192R DNA topoisomerase II, full-length (African swine fever virus, UniProt A0A2X0THW2 1-1192). Description: cryo-EM. The settings on record: protein: recombinant; tags: C-terminal 8xHis; chain copies: 2; blunt.
Series [2] addresses T1, pP1192R DNA topoisomerase II, …. The series can be described thus: EMSA. The settings on record: protein: recombinant; tags: C-terminal 8xHis; chain copies: 2; label: 5'-Cy5 on O1; four-way junction of O1-O4. Background: Mobility shift assays separate free from complexed probe on a gel.
The target is the same in series [3]. The series can be described thus: size exclusion chromatography. The note with it: protein: recombinant; tags: C-terminal 8xHis; chain copies: 2; four-way junction of O1-O4. In general terms: Size exclusion chromatography separates by hydrodynamic size, large species first.

B1: 52 bp dsDNA (G-segment) (dsDNA)
DNA 1: ATGCATATATATGTATATGTATGTGTGTATATATACACATATATATATATAT
DNA 2: ATATATATATATATGTGTATATATACACACATACATATACATATATATGCAT
Regarding B1, in series [1], the binding result is listed as “binds”.

B2: four-way junction DNA, Cy5 (structured_DNA)
DNA 1: CTGGACGCAATCTGACAATGCGCTCATCGTCATCCTCGGCACGCGCCG
DNA 2: CGGCGCGTGCCGAGGATGACGATGAGATAGGCGTTAACGCGGCCTA
DNA 3: TAGGCCGCGTTAACGCCTATTTGCCCGGGAGTACCGGCATTCCT
DNA 4: AGGAATGCCGGTACTCCCGGGCAACGCATTGTCAGATTGCGTCCAG
As for B2, the binding result in series [2] is recorded as “binds”.

B3: four-way junction DNA (structured_DNA)
DNA 1: B2 DNA 1
DNA 2: B2 DNA 2
DNA 3: B2 DNA 3
DNA 4: B2 DNA 4
Take B3: the binding result in series [3] is on record as “binds”.
